Measurements reported in patent US20130302347A1 (Genentech, published 2013).

Key:
Test in all cases: SPR screen of TNF-like ligands
[1] = target: TNFα (UniProt P01375 77-233)
Procedure: (§1) Surface plasmon resonance (SPR) was run on a BiaCore 3000 (GE healthcare, Piscataway, N.J.) at 25° C. using anti-human IgG F(ab′)₂ (Jackson Immunoresearch, West Grove, Pa.) amine-coupled to BiaCore CM5 sensor chips. For kinetic analysis of protein interactions, Fc-fusion proteins at 25 μg/ml were first captured onto sensor chips by injecting them for 3 min at 5 μl/min. Then, test proteins diluted to their indicated concentrations in HBS-P buffer (0.01 M Hepes, pH 7.4 0.15 M NaCl 0.005% Surfactant P20) were injected for 3 min at 30 μl/min. Dissociation in HBS-P buffer alone was then measured at a flow rate of […]. Sensor chips surfaces were regenerated by injecting 10 mM glycine pH 1.5 for 30 s after each cycle. Kinetic parameters were determined by fitting the data to a 1:1 Langmuir model using the Biacore 3000 evaluation software (GE Healthcare).

[2] = target: T1, LTα (UniProt P01374 35-205)
T1 sequence (looked up): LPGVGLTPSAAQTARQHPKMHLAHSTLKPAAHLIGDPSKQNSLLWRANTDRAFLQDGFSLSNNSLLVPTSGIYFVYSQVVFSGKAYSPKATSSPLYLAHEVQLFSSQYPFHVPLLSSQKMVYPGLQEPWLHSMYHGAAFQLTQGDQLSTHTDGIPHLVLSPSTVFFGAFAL
Procedure: as §1

[3] = target: T2, CD27L (UniProt P32970 39-193, limits assumed)
T2 sequence (looked up): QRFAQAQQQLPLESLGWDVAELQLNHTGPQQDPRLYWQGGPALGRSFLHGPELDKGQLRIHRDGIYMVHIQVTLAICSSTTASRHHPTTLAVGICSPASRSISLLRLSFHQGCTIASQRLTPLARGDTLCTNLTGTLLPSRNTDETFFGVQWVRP
Procedure: as §1

[4] = target: T3, FasL (UniProt P48023 134-281)
T3 sequence (looked up): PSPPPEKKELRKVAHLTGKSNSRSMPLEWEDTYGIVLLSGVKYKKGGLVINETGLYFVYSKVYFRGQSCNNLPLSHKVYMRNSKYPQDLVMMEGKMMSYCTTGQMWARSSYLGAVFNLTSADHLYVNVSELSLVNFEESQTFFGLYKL
Procedure: as §1

[5] = target: TNFSF14 (UniProt O43557 74-240, limits assumed)
Procedure: as §1

[6] = target: BAFF (UniProt Q9Y275 134-285, limits assumed)
Procedure: as §1

[7] = target: T4, EDA-A1 (UniProt Q92838 245-391, limits assumed)
T4 sequence (looked up): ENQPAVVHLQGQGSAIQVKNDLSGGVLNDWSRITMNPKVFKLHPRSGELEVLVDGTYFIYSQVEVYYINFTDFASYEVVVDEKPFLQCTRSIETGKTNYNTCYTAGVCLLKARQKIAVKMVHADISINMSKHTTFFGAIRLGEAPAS
Procedure: as §1

[8] = target: T5, CD30L (UniProt P32971 63-234)
T5 sequence (looked up): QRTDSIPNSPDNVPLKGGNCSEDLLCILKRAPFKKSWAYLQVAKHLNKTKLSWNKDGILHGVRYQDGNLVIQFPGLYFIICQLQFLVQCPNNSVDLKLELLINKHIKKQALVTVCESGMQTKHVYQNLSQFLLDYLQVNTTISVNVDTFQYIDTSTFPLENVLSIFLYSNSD
Procedure: as §1

[9] = target: T6, APRIL (UniProt O75888 105-250, limits assumed)
T6 sequence (looked up): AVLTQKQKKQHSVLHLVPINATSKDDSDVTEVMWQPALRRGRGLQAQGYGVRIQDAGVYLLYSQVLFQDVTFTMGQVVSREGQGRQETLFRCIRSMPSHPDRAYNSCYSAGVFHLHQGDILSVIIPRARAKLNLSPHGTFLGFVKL
Procedure: as §1

[10] = target: TRAIL (UniProt P50591 114-281)
Procedure: as §1

[11] = target: 4-1 BBL (UniProt P41273 71-254, limits assumed)
Procedure: as §1

[12] = target: T7, TL1A (UniProt O95150 72-251)
T7 sequence (looked up): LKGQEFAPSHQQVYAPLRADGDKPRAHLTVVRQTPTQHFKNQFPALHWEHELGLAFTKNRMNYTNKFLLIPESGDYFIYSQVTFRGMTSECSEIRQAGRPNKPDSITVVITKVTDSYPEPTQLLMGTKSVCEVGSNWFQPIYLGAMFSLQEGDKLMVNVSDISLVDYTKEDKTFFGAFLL
Procedure: as §1

[13] = target: T8, RANKL (UniProt O14788 140-317, limits assumed)
T8 sequence (looked up): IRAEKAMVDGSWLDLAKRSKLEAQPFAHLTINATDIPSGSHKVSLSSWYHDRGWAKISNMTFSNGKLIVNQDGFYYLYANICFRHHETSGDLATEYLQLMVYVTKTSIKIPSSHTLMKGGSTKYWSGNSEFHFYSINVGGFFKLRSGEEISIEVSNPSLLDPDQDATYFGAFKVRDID
Procedure: as §1

Measured: binding result

Sequence of 4-1 BBL (P41273 71-254 limits assumed): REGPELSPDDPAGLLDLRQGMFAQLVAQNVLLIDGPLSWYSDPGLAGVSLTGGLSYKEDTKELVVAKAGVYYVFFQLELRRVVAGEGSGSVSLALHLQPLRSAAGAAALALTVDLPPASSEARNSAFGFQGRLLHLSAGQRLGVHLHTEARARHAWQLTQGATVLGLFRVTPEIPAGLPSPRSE
Sequence of TNFSF14 (O43557 74-240 limits assumed): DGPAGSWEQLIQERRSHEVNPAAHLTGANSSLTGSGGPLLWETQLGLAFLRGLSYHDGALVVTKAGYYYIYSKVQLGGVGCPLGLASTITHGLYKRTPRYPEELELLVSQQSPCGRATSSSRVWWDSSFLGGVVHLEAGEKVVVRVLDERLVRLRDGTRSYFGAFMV
Sequence of TRAIL (P50591 114-281 limits assumed): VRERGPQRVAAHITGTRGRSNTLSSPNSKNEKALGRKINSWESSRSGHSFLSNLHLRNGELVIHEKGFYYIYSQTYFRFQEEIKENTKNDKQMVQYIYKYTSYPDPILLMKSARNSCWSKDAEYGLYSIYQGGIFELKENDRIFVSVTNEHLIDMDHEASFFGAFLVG
Sequence of TNFα (P01375 77-233 limits assumed): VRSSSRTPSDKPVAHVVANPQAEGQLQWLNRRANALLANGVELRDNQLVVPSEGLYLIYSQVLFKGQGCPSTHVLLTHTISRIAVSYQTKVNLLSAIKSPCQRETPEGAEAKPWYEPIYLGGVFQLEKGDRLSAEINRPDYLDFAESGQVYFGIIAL
Sequence of BAFF (Q9Y275 134-285 limits assumed): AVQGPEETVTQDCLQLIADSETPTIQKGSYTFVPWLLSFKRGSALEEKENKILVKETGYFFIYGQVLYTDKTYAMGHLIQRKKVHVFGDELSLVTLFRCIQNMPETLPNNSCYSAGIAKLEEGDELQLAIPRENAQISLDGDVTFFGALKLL

B1: TMEM149-Fc (human TMEM149 extracellular domain with C-terminal human IgG1 Fc) (Fc fusion)
chain: SQYCGRLEYWNPDNKCCSSCLQRFGPPPCPDYEFRENCGLNDHGDFVTPPFRKCSSGQCNPDGAELCSPCGGGAVTPTPAAGGGRTPWRCRERPVPAKGHCPLTPGNPGAPSSQERSSPASSIAWRTPEPVPQQAWPN
notes: also called recombinant human TMEM149-Fc; Fc-TMEM149; not shown: human IgG1 Fc, C-terminal
no binding: [1] | [2] | [3] | [4] | [5] | [6] | [7] | [8] | [9] | [10] | [11] | [12] | [13]
